Data as given in paper PMC4663627.

Target: T1, p19 (GST-p19) (Cymbidium ringspot virus (CymRSV)) (UniProt P17457)
T1 sequence: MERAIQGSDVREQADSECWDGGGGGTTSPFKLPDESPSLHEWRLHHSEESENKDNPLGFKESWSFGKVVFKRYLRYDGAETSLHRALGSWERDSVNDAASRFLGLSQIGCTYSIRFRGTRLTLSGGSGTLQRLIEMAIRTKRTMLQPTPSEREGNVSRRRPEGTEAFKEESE
Test: SiNW-FET conductance, Langmuir fit
Details: phosphate solution (240 uM NaH2PO4, 760 uM Na2HPO4), pH 7.4, Debye length 6.1 nm, temperature not given

Row | Sequence | Kd (5'-phosphate) [nM] | Kd [nM]
1 | CGUACGCGGAAUACUUCGAUU / UCGAAGUAUUCCGCGUACGUU [ds-sRNA-0] | 16 | 
2 | GCGACGCGGAAUACUUCGAUU / UCGAAGUAUUCCGCGUACGUU [ds-sRNA-2] |  | 227
3 | GCGACGCGGAAUACUUGCUUU / UCGAAGUAUUCCGCGUACGUU [ds-sRNA-3] |  | 1140
